The values below come from US8822645B2, “Prostaglandin E2 dual variable domain immunoglobulins and uses thereof” (AbbVie Inc., priority 2008, dated 2014).

In one assay the test system is target antigen. Description: BIACORE affinity determination of parent antibodies and DVD-Ig constructs. The class given is binding. As to conditions: antigen IL-6R, 25° C. How it is done:
The BIACORE assay (Biacore, Inc, Piscataway, N.J.) determines the affinity of antibodies or DVD-Ig with kinetic measurements of on-rate and off-rate constants. […] All chemicals are obtained from Biacore® AB (Uppsala, Sweden) or otherwise from a different source as described in the text. For example, approximately 5000 RU of goat anti-mouse IgG, (Fcγ), fragment specific polyclonal antibody (Pierce Biotechnology Inc, Rockford, Ill.) diluted in 10 mM sodium acetate (pH 4.5) is directly immobilized across a CM5 research grade biosensor chip using a standard amine coupling kit according to manufacturer's instructions and procedures at 25 μg/ml. Unreacted moieties on the biosensor surface are blocked with ethanolamine. Modified carboxymethyl dextran surface in flowcell 2 and 4 is used as a reaction surface. Unmodified carboxymethyl dextran without goat anti-mouse IgG in flow cell 1 and 3 is used as the reference surface. For kinetic analysis, rate equations derived from the 1:1 Langmuir binding model are fitted simultaneously to association and dissociation phases of all eight injections (using global fit analysis) with the use of Biaevaluation 4.0.1 software. Purified antibodies or DVD-Ig are diluted in HEPES-buffered saline for capture across goat anti-mouse IgG specific reaction surfaces. Antibodies or DVD-Ig to be captured as a ligand (25 μg/ml) are injected over reaction matrices at a flow rate of 5 μl/min. The association and dissociation rate constants, kon (M^−1 s^−1) and koff (s^−1) are determined under a continuous flow rate of 25 μl/min. Rate constants are derived by making kinetic binding measurements at different antigen concentrations ranging from 10-200 nM. The equilibrium dissociation constant (M) of the reaction between antibodies or DVD-Igs and the target antigen is then calculated from the kinetic rate constants by the following formula: KD=koff/kon. Binding is recorded as a function of time and kinetic rate constants are calculated. In this assay, on-rates as fast as 10^6 M^−1 s^−1 and off-rates as slow as 10^−6 s^−1 can be measured.
For orientation: In SPR one partner is held on a chip, and binding of the other changes the refractive index at the surface.

The nature of assay [1]: PGE2-biotinamide ELISA (PGE2 binding). The conditions noted are these: PGE2 VD in C-terminal position, read-out: Direct Bind ELISA C-terminal VD EC50. The method in brief:
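Antibody or DVD-Ig (1 µg/ml) captured on anti-host Fc IgG-coated plates for 1 h at room temperature, then titrated with PGE2-biotinamide serially diluted from 30 nM for 1 h. Binding detected with streptavidin-polyHRP and TMB, absorbance read at 450 nm; EC50 from the titration curve.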
A general note: An ELISA detects its analyte on a solid surface through an enzyme-linked reagent.

Assay [2] concerns stable cell lines overexpressing a cell-surface antigen of interest or human tumor cell lines. Description: Flow cytometry (FACS) binding to cell surface antigen. The class given is cell-based. The conditions noted are these: IL-6R VD in N-terminal position; 2 μg/mL. Here is the method: Stable cell lines overexpressing cell-surface antigen of interest or human tumor cell lines were harvested from tissue culture flasks and resuspended in phosphate buffered saline (PBS) containing 5% fetal calf serum (PBS/FCS). Prior to staining, human tumor cells were incubated on ice with human IgG at 200 μg/ml in PBS/FCS. 1-5×10^5 cells were incubated with antibody or DVD-Ig (1-2 μg/mL) in PBS/FCS for 30-60 minutes on ice. […] After 30 minutes incubation on ice, cells were washed twice and resuspended in PBS/FCS. Fluorescence was measured using a Becton Dickinson FACSCalibur (Becton Dickinson, San Jose, Calif.).
Stable cell lines overexpressing a cell-surface antigen of interest or human tumor cell lines were harvested from tissue culture flasks and resuspended in phosphate buffered saline (PBS) containing 5% fetal bovine serum (PBS/FBS). Prior to staining, human tumor cells were incubated on ice with (100 μl) human IgG at 5 μg/ml in PBS/FCS. 1-5×10^5 cells were incubated with antibody or DVD-Ig (2 μg/mL) in PBS/FBS for 30-60 minutes on ice. […] After 30 minutes incubation on ice, cells were washed twice and resuspended in PBS/FBS. Fluorescence was measured using a Becton Dickinson FACSCalibur (Becton Dickinson, San Jose, Calif.).
The geometric mean is the n root of the multiplication product of n fluorescent signals (a1×a2×a3 . . . an). […]
A general note: A flow cytometer gives signals particle by particle.

B1: DVD152: DVD-Ig construct listed in Table 4 (antibody)
VH: EVQLQESGPGLVRPSQTLSLTCTVSGYSITSDHAWSWVRQPPGRGLEWIGYISYSGITTYNPSLKSRVTMLRDTSKNQFSLRLSSVTAADTAVYYCARSLARTTAMDYWGQGSLVTVSSASTKGPEVQLVQSGAEVKKPGASVKVSCKASGYTFTKYWLGWVRQAPGQGLEWMGDIYPGYDYTHYNEKFKDRVTLTTDTSTSTAYMELRSLRSDDTAVYYCARSDGSSTYWGQGTLVTVSS
VL: DIQMTQSPSSLSASVGDRVTITCRASQDISSYLNWYQQKPGKAPKLLIYYTSRLHSGVPSRFSGSGSGTDFTFTISSLQPEDIATYYCQQGNTLPYTFGQGTKVEIKRTVAAPDVLMTQTPLSLPVTPGEPASISCTSSQNIVHSNGNTYLEWYLQKPGQSPQLLIYKVSNRFSGVPDRFSGSGSGTDFTLKISRVEAEDVGVYYCFQVSHVPYTFGGGTKVEIKR
On to B1, for which the koff (usually the first-order rate constant of dissociation) in the assay on target antigen (IL-6R binding by C-terminal domain) is 0.00015 s⁻¹; in the assay with target antigen (IL-6R binding by N-terminal domain), 0.000115 s⁻¹. For the same molecule, in assay [1], the concentration for a half-maximal effect (EC50) (commonly the concentration that produces a half-maximal response) came out at 1.65 nM. Also, the “FACS Geometric Mean N-terminal” value in assay [2] was 9.13.
